Results: patent US20150353933, “APTAMER AGAINST MIDKINE AND APPLICATIONS THEREOF” (RIBOMIC INC., published 2015)
Substitutions are numbered along the chain they refer to.

T1: midkine (MK) (Homo sapiens, UniProt P21741 P21741:21-143)
T1 sequence: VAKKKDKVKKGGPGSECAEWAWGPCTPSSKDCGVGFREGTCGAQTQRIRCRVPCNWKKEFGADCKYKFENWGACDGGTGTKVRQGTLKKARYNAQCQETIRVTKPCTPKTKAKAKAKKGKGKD

T2: midkine (AP-MK) (Homo sapiens, UniProt P21741 P21741:23-143)
T2 chain: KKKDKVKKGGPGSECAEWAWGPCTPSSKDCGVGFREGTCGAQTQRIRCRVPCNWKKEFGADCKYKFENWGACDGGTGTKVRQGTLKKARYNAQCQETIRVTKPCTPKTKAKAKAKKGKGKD

B1: SEQ ID NO: 2 (ssRNA)
RNA: GGGACACAAUGGACGUCUGUGUGGUUUAUCCGGAUGUCCGUCGUCCUCUGUCAUGUAACGGCCGACAUGAGAG
modifications: 2'-F pyrimidines; 16-nt poly A at 3' end for SPR
B2: SEQ ID NO: 6 (ssRNA)
RNA: B1 RNA with U35C, A53G
modifications: 2'-F pyrimidines; 16-nt poly A at 3' end for SPR
B3: SEQ ID NO: 4 (ssRNA)
RNA: B1 RNA with U51C
modifications: 2'-F pyrimidines; 16-nt poly A at 3' end for SPR
B4: SEQ ID NO: 3 (ssRNA)
RNA: B1 RNA with A53G
modifications: 2'-F pyrimidines; 16-nt poly A at 3' end for SPR
B5: SEQ ID NO: 5 (ssRNA)
RNA: B1 RNA with U49G
modifications: 2'-F pyrimidines; 16-nt poly A at 3' end for SPR
B6: SEQ ID NO: 8-3 (ssRNA)
RNA: GUCUGUGUGGUUUAUCCGGAC
modifications: 5' 80PEG4gs; 3' idT; 2'-OMe at G1,G9,G10,U13,G18,G19,A20; 2'-F at other pyrimidines except C21 (unmodified as printed); 2'-OH at G5,G7,A14
B7: SEQ ID NO: 8-2 (ssRNA)
RNA: GUCUGUGUGGUUUAUCCGGAC
modifications: 5' 80PEG4ts; 3' idT; 2'-OMe at G1,G9,G10,U13,G18,G19,A20; 2'-F at other pyrimidines except C21 (unmodified as printed); 2'-OH at G5,G7,A14
B8: SEQ ID NO: 8-4 (ssRNA)
RNA: GUCUGUGUGGUUUAUCCGGAC
modifications: 5' 80PEG4ts; 3' idT; 2'-OMe at 1-3,8-10,13,18-21; 2'-F at U4,U6,U11,U12,U15,C16,C17; 2'-OH at G5,G7,A14
B9: SEQ ID NO: 8-5 (ssRNA)
RNA: GUCUGUGUGGUUUAUCCGGAC
modifications: 5' 80PEG4gs; 3' idT; 2'-OMe at 1-3,8-10,13,18-21; 2'-F at U4,U6,U11,U12,U15,C16,C17; 2'-OH at G5,G7,A14
B10: SEQ ID NO: 8-1 (ssRNA)
RNA: GUCUGUGUGGUUUAUCCGGAC
modifications: 2'-OMe at G1,G9,G10,U13,G18,G19,A20; 2'-F at all other pyrimidines; 2'-OH at G5,G7,A14
B11: SEQ ID NO: 7-1 (ssRNA)
RNA: GCCAUCGCAAUGGUGAGUGGUUUAUCCGCCUGCGCAUGGC
modifications: 2'-OMe at 1-3 and 38-40; 2'-F at all other pyrimidines; other purines 2'-OH
B12: SEQ ID NO: 7-3 (ssRNA)
RNA: B11 RNA
modifications: 5' 40PEG2ts; 3' idT; 2'-OMe at 1-13,19,20,23,28,30-40; 2'-F at U14,U18,U21,U22,U25,C26,C27,C29; 2'-OH at G15,A16,G17,A24
B13: SEQ ID NO: 7-4 (ssRNA)
RNA: B11 RNA
modifications: 5' 40PEG2ts; 3' idT; 2'-OMe at C2,C3,C40 and all purines except G15,A16,G17,A24 (2'-OH); 2'-F at all other pyrimidines
B14: SEQ ID NO: 7-2 (ssRNA)
RNA: B11 RNA
modifications: 5' 40PEG2ts; 3' idT; 2'-OMe at 1-3 and 38-40; 2'-F at all other pyrimidines
B15: SEQ ID NO: 8 (ssRNA)
RNA: GUCUGUGUGGUUUAUCCGGAC
modifications: 2'-F pyrimidines
B16: SEQ ID NO: 7 (ssRNA)
RNA: B11 RNA
modifications: 2'-F pyrimidines
B17: SEQ ID NO: 10 (ssRNA)
RNA: GCUCGCAAUGGUGAGUGGUUUAUCCGCCUGCGCAGC
modifications: 3' idT; 2'-OMe at 1-11,17,18,21,26,28-36; 2'-F at U12,U16,U19,U20,U23,C24,C25,C27; 2'-OH at G13,A14,G15,A22
B18: SEQ ID NO: 11 (ssRNA)
RNA: GCGCAAUGGUGAGUGGUUUAUCCGCCUGCGC
modifications: 3' idT; 2'-OMe at 1-10,12,15,16,19,24,26-31; 2'-F at U14,U17,U18,U21,C22,C23,C25; 2'-OH at G11,G13,A20
B19: SEQ ID NO: 11-1 (ssRNA)
RNA: B18 RNA
modifications: 3' idT; 2'-OMe at 1-10,12,15,16,19,23-31; 2'-F at U14,U17,U18,U21,C22; 2'-OH at G11,G13,A20
B20: SEQ ID NO: 12 (ssRNA)
RNA: CGCAAUGGUGAGUGGUUUAUCCGCCUGCG
modifications: 3' idT; 2'-OMe at 1-8,14,15,18,23,25-29; 2'-F at U9,U13,U16,U17,U20,C21,C22,C24; 2'-OH at G10,A11,G12,A19
B21: SEQ ID NO: 9 (mixed)
RNA: GCCAUCGCAAUGGUGAGUGGUUUAUCCGCCUGCGCAUGGCAAAAAAAAAAAAAAAA
modifications: 2'-OMe at 1-3 and 38-40; 2'-F at all other pyrimidines; 3' 16-nt poly dA (DNA)
B22: SEQ ID NO: 9-3 (mixed)
RNA: B21 RNA
modifications: 2'-OMe at C2,C3,C40 and RNA purines except G15,G17,A24 (2'-OH); 2'-F at all other pyrimidines; 3' 16-nt poly dA (DNA)
B23: SEQ ID NO: 9-2 (mixed)
RNA: B21 RNA
modifications: 2'-OMe at C2,C3,C40 and RNA purines except A16,G17,A24 (2'-OH); 2'-F at all other pyrimidines; 3' 16-nt poly dA (DNA)
B24: SEQ ID NO: 9-5 (mixed)
RNA: B21 RNA
modifications: 2'-OMe at C2,C3,C40 and RNA purines except G15,A16,G17 (2'-OH); 2'-F at all other pyrimidines; 3' 16-nt poly dA (DNA)
B25: SEQ ID NO: 9-4 (mixed)
RNA: B21 RNA
modifications: 2'-OMe at C2,C3,C40 and RNA purines except G15,A16,A24 (2'-OH); 2'-F at all other pyrimidines; 3' 16-nt poly dA (DNA)
B26: SEQ ID NO: 9-1 (mixed)
RNA: B21 RNA
modifications: 2'-OMe at C2,C3,C40 and RNA purines except G15,A16,G17,A24 (2'-OH); 2'-F at all other pyrimidines; 3' 16-nt poly dA (DNA)
B27: SEQ ID NO: 7-9 (ssRNA)
RNA: B11 RNA
modifications: 3' idT; 2'-OMe at 1-13,16,17,19,20,23,28,30-40; 2'-F at U14,U18,U21,U22,U25,C26,C27,C29; 2'-OH at G15,A24
B28: SEQ ID NO: 7-6 (ssRNA)
RNA: B11 RNA
modifications: 3' idT; 2'-OMe at 1-14,16,19,20,23,28,30-40; 2'-F at U18,U21,U22,U25,C26,C27,C29; 2'-OH at G15,G17,A24
B29: SEQ ID NO: 7-8 (ssRNA)
RNA: B11 RNA
modifications: 3' idT; 2'-OMe at 1-13,16,19,20,23,28-40; 2'-F at U14,U18,U21,U22,U25,C26,C27; 2'-OH at G15,G17,A24
B30: SEQ ID NO: 7-5 (ssRNA)
RNA: B11 RNA
modifications: 3' idT; 2'-OMe at 1-13,16,19,20,23,28,30-40; 2'-F at U14,U18,U21,U22,U25,C26,C27,C29; 2'-OH at G15,G17,A24
B31: SEQ ID NO: 7-7 (ssRNA)
RNA: B11 RNA
modifications: 3' idT; 2'-OMe at 1-13,16,19,20,23,27,28,30-40; 2'-F at U14,U18,U21,U22,U25,C26,C29; 2'-OH at G15,G17,A24
B32: SEQ ID NO: 1 (ssRNA)
RNA: GGGAGAGGAGAAGAGGAAGCUAUCGCAAUGGUGAGUGGUUUAUCCGCCUGCGCAUGGUUAGAGGACAGGAAUGAGGA
modifications: 2'-F pyrimidines; 16-nt poly A at 3' end for SPR

Target: T1, midkine (MK)
Assay: SPR; strongly binds; 0.5 uM MK analyte; solution A
Conditions: tags: produced in yeast
Procedure: (§1) The binding activities of the oligonucleotides shown by SEQ ID NO:1 to 6 obtained in Examples 1 and 2 for MK were evaluated by a surface plasmon resonance method. The measurements were performed using BIAcore2000, manufactured by BIAcore. The sensor chip used was the SA chip, which had streptavidin immobilized thereon. Bound thereto was about 1000 RU of a 16-nucleotide Poly dT with biotin bound to the 5′ end thereof. […] 70 μL of MK for analyte, prepared at 0.5 μM, was injected.

Row | Binder | binding result
1 | B1 | binds
2 | B2 | binds
3 | B3 | binds
4 | B4 | binds
5 | B5 | binds

Target: T2, midkine (AP-MK)
Assay: inhibition; AP-MK binding to HepG2, 500 nM aptamer
Conditions: tags: alkaline phosphatase fusion, APtag-5 vector (GenHunter), 293T culture supernatant
Procedure: (§2) Using the above-mentioned AP-MK, a binding inhibitory experiment relative to TNB1 cell, which is a human neuroblastoma cell, was performed. TNB1 cells were seeded at 1×10⁵ cells/well on a 6-well plate coated with collagen I. The next day, the cells were washed with 1 mL of HBHA (HBSS+0.5 mg/mL BSA+20 mM HEPES pH 7.0), 1 U/mL AP or AP-MK, and further, the aptamer shown in SEQ ID NO: 7-1 at a final concentration of 100 nM were added and the mixture was maintained at room temperature for 90 min. After washing 5 times with 1 mL of HBHA, 200 μL of Cell Lysis Buffer (manufactured by GenHunter) was added and the mixture was stirred for 5 min. The cells were scraped with a Scraper and placed in an Eppendorf tube, vortexed for 10 sec and centrifuged at 15000 rpm for 2 min. The supernatant was recovered, and heated at 65° C. for 10 min to inactivate endogenous AP. Using 50 μL, color development was performed in the same manner as above (15 min) and the activity of AP was calculated.
An experiment similar to the above was performed using HepG2 cells which are human liver cancer-derived cells. It is already known that MK is deeply involved in the growth and inhibition of apoptosis of HepG2 cells (Ohuchida et al., Cancer 100, 2430-2436, 2004; Dai et al., World J. Gastroenterol. 15, 1966-1972, 2009). When the aptamer was added to the system, the binding of AP-MK and HepG2 was inhibited (Table 1).

Row | Binder | activity [% inhibition]
6 | B6 | 65
7 | B7 | 61
8 | B8 | 58
9 | B9 | 61
10 | B10 | 76
11 | B11 | 93

Target: T2, midkine (AP-MK)
Assay: inhibition; AP-MK binding to TNB1 cells
Conditions: tags: alkaline phosphatase fusion, APtag-5 vector (GenHunter), 293T culture supernatant
Procedure: as §2
(§3) An altered form of SEQ ID NO: 7-1 was produced, and AP-MK binding inhibitory experiment was performed using HepG2 and TNB1 cells and in the same manner as above. The sequences of the altered forms actually produced are shown below. While Poly dA for BIAcore measurement is added to the 3′-terminus of the aptamers shown in SEQ ID NO: 9 and SEQ ID NO: 9-1-5, an influence on the activity is not expected. The 50% inhibitory concentration (IC₅₀) was determined from the concentrations at two, above and below points sandwiching the 50% inhibitory activity (Table 2).

Row | Binder | IC50 [nM]
12 | B11 | 18
13 | B12 | 11
14 | B13 | 18
15 | B14 | 26

Target: T1, midkine (MK)
Assay: SPR; confirmed MK binding, as in Example 3
Conditions: tags: produced in yeast
Procedure: as §1
Those aptamers were evaluated by the surface plasmon resonance method in the same manner as in Example 3, and they were confirmed to have MK binding activity.

Row | Binder | binding result
16 | B15 | binds
17 | B6 | binds
18 | B7 | binds
19 | B8 | binds
20 | B9 | binds
21 | B10 | binds
22 | B11 | binds
23 | B16 | binds

Target: T2, midkine (AP-MK)
Assay: inhibition; AP-MK binding to HepG2 cells
Conditions: tags: alkaline phosphatase fusion, APtag-5 vector (GenHunter), 293T culture supernatant
Procedure: as §2, §3

Row | Binder | IC50 [nM]
24 | B17 | < 2
25 | B18 | 6.3
26 | B19 | 7.8
27 | B20 | < 2
28 | B21 | 3.3
29 | B22 | 3
30 | B23 | 13
31 | B24 | 19
32 | B25 | 4.1
33 | B26 | 1.6
34 | B11 | 6
35 | B27 | 4.7
36 | B12 | 1.7
37 | B28 | < 2
38 | B29 | < 2
39 | B13 | 3.6
40 | B30 | < 2
41 | B31 | < 2
42 | B14 | 4.9

Target: T1, midkine (MK)
Assay: SPR; strongly binds; 0.5 uM MK analyte; solution A (Na, K, Ca, Mg, Tris pH 7.6)
Conditions: tags: produced in yeast
Procedure: as §1

Row | Binder | binding result
43 | B32 | binds
